We go through one protein from FireProtDB (doi:10.1016/s0167-4838(98)00243-x).

As a reminder, the Tm is the temperature at the midpoint of the melting transition.

For this data set the following is noted: Streptomyces sp. (strain N174), pH 7, Thermal, sodium phosphate 50 mM, whole UniProt chain shown.
The mark [1] stands for this setting: CD, transition: 3, reversible: yes(85%).
[2] abbreviates: Fluorescence, reversible: yes(75%).

B1: Chitosanase wild type, P33665 (protein)
chain: MHSQHRTARIALAVVLTAIPASLATAGVGYASTQASTAVKAGAGLDDPHKKEIAMELVSSAENSSLDWKAQYKYIEDIGDGRGYTGGIIGFCSGTGDMLELVQHYTDLEPGNILAKYLPALKKVNGSASHSGLGTPFTKDWATAAKDTVFQQAQNDERDRVYFDPAVSQAKADGLRALGQFAYYDAIVMHGPGNDPTSFGGIRKTAMKKARTPAQGGDETTYLNAFLDARKAAMLTEAAHDDTSRVDTEQRVFLKAGNLDLNPPLKWKTYGDPYVINS
In the case of B1, the Tm under setting [1] worked out at 42.7 °C and the Tm under setting [2] is 43.2 °C. Further, the “unfolding enthalpy (van 't Hoff)” value reads like this: under setting [1], 120 kcal/mol; under setting [2], 161 kcal/mol.
